In patent publication US20220378932A1 (published 2022):
One block for each binder: values may come before it.

How the values were obtained:
[1] = molecular target: T1, Fc fusion of the human GFRα1 extracellular domain (GFRα1:Fc fusion protein) (human, UniProt P56159 25-429, limits assumed); experiment: ELISA on captured GFRα1:Fc (format of FIG. 33), run with the CHO-derived fusion protein
T1 construct: extracellular domain; Bought (R&D Systems), captured on plates by a mouse anti-human IgG; also called GFRα1 ECD; GFRal; not shown: Fc part of the bought fusion, captured by a mouse anti-human Fc antibody
T1 sequence (looked up): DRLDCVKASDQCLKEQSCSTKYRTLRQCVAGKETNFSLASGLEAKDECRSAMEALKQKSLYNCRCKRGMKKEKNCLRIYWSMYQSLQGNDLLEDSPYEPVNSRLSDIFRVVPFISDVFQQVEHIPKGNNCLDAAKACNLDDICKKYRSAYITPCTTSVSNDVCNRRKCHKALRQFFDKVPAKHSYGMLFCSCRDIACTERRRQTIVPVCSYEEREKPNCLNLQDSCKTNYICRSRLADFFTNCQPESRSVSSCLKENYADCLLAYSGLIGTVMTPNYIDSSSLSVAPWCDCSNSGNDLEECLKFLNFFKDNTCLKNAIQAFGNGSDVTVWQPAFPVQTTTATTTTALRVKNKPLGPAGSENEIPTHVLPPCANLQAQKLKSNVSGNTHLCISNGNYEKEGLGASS

[2] = molecular target: T1, Fc fusion of the human GFRα1 …; experiment: ELISA on GFRα1:Fc captured by mouse anti-human IgG, detection with goat anti-GDNF antibody
[3] = molecular target: T2, human insulin receptor extracellular domain (HIR ECD) (human, UniProt P06213 28-956, limits assumed); experiment: competitive ligand binding assay: displacement of [125I] murine HIRMAb from plated HIR ECD; Scatchard analysis, high affinity site, nonlinear regression
T2 construct: extracellular domain

[4] = molecular target: T2, human insulin receptor extracellular …; experiment: ELISA on plated HIR ECD, COS cell-derived protein, detection with biotinylated goat anti-human IgG; non-linear regression
[5] = molecular target: T1, Fc fusion of the human GFRα1 …; experiment: ELISA on GFRα1:Fc captured by mouse anti-human Fc antibody, detection with goat anti-GDNF antibody

EC50 [1]: 1 nM
EC50 [2]: 1.03 nM
B1: recombinant human GDNF (ligand)
chain: SPDKQMAVLPRRERNRQAAAANPENSRGKGRRGQRGKNRGCVLTAIHLNVTDLGLGYETKEELIFRYCSGSCDAAETTYDKILKNLSRNRRLVSDKVGQACCRPIAFDDDLSFLDDNLVYHILRKHSAKRCGCI
notes: Bought (Peprotech); also called recombinant GDNF

Ki [3]: 0.63 nM
B2: chimeric HIRMAb (Examples 3 and 4) (antibody, human IgG1, kappa)
heavy: not shown
light: DIQMTQSPSSLSASLGERVSLTCRASQDIGGNLYWLQQGPDGTIKRLIYATSSLDSGVPKRFSGSRSGSDYSLTISSLESEDFVDYYCLQYSSSPWTFGGATKMEIKRTVAAPSVFIFPPSDEQLKSGTASVVCLLNNFYPREAKVQWKVDNALQSGNSQESVTEQDSKDSTYSLSSTLTLSKADYEKHKVYACEVTHQGLSSPVTKSFNRGEC
notes: also called chimeric form of the HIRMAb; product of clone 400

EC50 [4]: 0.5 nM
binding result [5]: no binding
B3: chimeric HIRMAb (Examples 15 and 16) (antibody, human IgG1, kappa, V domains shown)
VH: QVQLQQSGPELVKPGALVKISCKASGYTFTNYDIHWVKQRPGQGLEWIGWIYPGDGSTKYNEKFKGKATLTADKSSSTAYMHLSSLTSEKSAVYFCAREWAYWGQGTLVTVSA
VL: DIQMTQSPSSLSASLGERVSLTCRASQDIGGNLYWLQQGPDGTIKRLIYATSSLDSGVPKRFSGSRSGSDYSLTISSLESEDFVDYYCLQYSSSPWTFGGGTKMEIKR
notes: also called COS cell-derived chimeric HIRMAb; CHO-derived HIRMAb
